This note sets out measurements from publication PMC13276077.

Test in all cases: EMSA
Data set [1] deals with HisMBP-MeCP2 162-309 (Homo sapiens) (UniProt P51608). The note with it: apparent, competitor DNA, EMSA: 20 mM HEPES pH 7.5, 75 mM NaCl, 125 mM KCl, 50 uM EDTA, 2.5 mM beta-mercaptoethanol, 5% glycerol, BSA, 1.58 uM 47 bp competitor DNA (absent in free DNA …). (In general: Mobility shift assays separate free from complexed probe on a gel.)
A further data set deals with MeCP2 MBD (Homo sapiens) (UniProt P51608). The note with it: EMSA: 20 mM HEPES pH 7.5, 75 mM NaCl, 125 mM KCl, 50 uM EDTA, 2.5 mM beta-mercaptoethanol, 5% glycerol, BSA, 1.58 uM 47 bp competitor DNA (absent in free DNA …).
The target of data set [2] is MeCP2 R133G R133G (Homo sapiens) (UniProt P51608). The note with it: apparent, competitor DNA, EMSA: 20 mM HEPES pH 7.5, 75 mM NaCl, 125 mM KCl, 50 uM EDTA, 2.5 mM beta-mercaptoethanol, 5% glycerol, BSA, 1.58 uM 47 bp competitor DNA (absent in free DNA …).
For data set [3], the target named is MeCP2 full-length, e2 isoform (Homo sapiens) (UniProt P51608). The following applies: EMSA: 20 mM HEPES pH 7.5, 75 mM NaCl, 125 mM KCl, 50 uM EDTA, 2.5 mM beta-mercaptoethanol, 5% glycerol, BSA, 1.58 uM 47 bp competitor DNA (absent in free DNA …).
The target of data set [4] is MeCP2 AT-DIRmut R188G;R190G;K254N;K256N;R268Q (Homo sapiens) (UniProt P51608). The note with it: apparent, competitor DNA, EMSA: 20 mM HEPES pH 7.5, 75 mM NaCl, 125 mM KCl, 50 uM EDTA, 2.5 mM beta-mercaptoethanol, 5% glycerol, BSA, 1.58 uM 47 bp competitor DNA (absent in free DNA …).
The target in data set [5] is MeCP2 AT-DIRmut;histone octamer R188G;R190G;K254N;K256N;R268Q|H2B T115C;H3.1 C96S;C110A (Homo sapiens;) (UniProt P51608+P0C0S8+P62807+P68431+P62805). The note with it: 20 mM HEPES pH 7.5, 75 mM NaCl, 125 mM KCl, 50 uM EDTA, 2.5 mM beta-mercaptoethanol, 5% glycerol, BSA, 1.58 uM 47 bp competitor DNA (nucleosome assays), absent …, low values mean tight binding.
The target of data set [6] is MeCP2 full-length, e2 isoform;histone H1.0;histone octamer H2B T115C;H3.1 C96S;C110A (Homo sapiens;Homo sapiens;) (UniProt P51608+P07305+P0C0S8+P62807+P68431+P62805). The following applies: 20 mM HEPES pH 7.5, 75 mM NaCl, 125 mM KCl, 50 uM EDTA, 2.5 mM beta-mercaptoethanol, 5% glycerol, BSA, 1.58 uM 47 bp competitor DNA (nucleosome assays), absent …, low values mean tight binding.

Data set [7] addresses MeCP2 full-length, e2 isoform;histone octamer H2B T115C;H3.1 C96S;C110A (Homo sapiens;) (UniProt P51608+P0C0S8+P62807+P68431+P62805). The note with it: 20 mM HEPES pH 7.5, 75 mM NaCl, 125 mM KCl, 50 uM EDTA, 2.5 mM beta-mercaptoethanol, 5% glycerol, BSA, 1.58 uM 47 bp competitor DNA (nucleosome assays), absent …, low values mean tight binding.
Data set [8] deals with MeCP2 MBD;histone octamer H2B T115C;H3.1 C96S;C110A (Homo sapiens;) (UniProt P51608+P0C0S8+P62807+P68431+P62805). The note with it: 20 mM HEPES pH 7.5, 75 mM NaCl, 125 mM KCl, 50 uM EDTA, 2.5 mM beta-mercaptoethanol, 5% glycerol, BSA, 1.58 uM 47 bp competitor DNA (nucleosome assays), absent …, low values mean tight binding.
Where [9] appears, read: meCpG at +83, -61, -80 bp from dyad.

For “ATGGAACACATTGCACAGGATGTATATATCTGACACGTGCCTGGAGACTAGGGAGTAATCCCCTTGGCGGTTAAAACGCGGGGGACAGCGCGTACGTGCGTTTAAGCGGTGCTAGAGCTGTCTACGACCAATTGAGCGGCCTCGGCACCGGGATTCTCCAGGGCGGCCGCGTATT (double strand) [15-N601-15 nucleosome unmethylated]”, the Kd in data set [1] worked out at 240 nM; with MeCP2 MBD (Homo sapiens) it was 1000 nM; in [2], 596 nM; in data set [3], 220 nM.

As for “GAGCCACAAAATCACCGACGCTCACGGGTGCCCAGTTCGCGCGCCCACCTACCGTGTGAAGTCGTCACTCGGGCTTCTAAGTACGCTTAGCGCACGGTAGAGCGCAATCCAAGGCTAACCACCGTGCATCGATGTTGAAAGAGGCCCTCCGTCCTTATTACTTCAAGTCCCTGGGGTACCCGTTTCACTGCCA (double strand) [16-N603-30 nucleosome 91 meCpA]”, the Kd in data set [1] (asymmetric meCpA at 91) amounted to 103 nM; with MeCP2 MBD (Homo sapiens) (asymmetric meCpA at 91), 85.7 nM; in data set [2] (asymmetric meCpA at 91), 162 nM; in data set [3] (asymmetric meCpA at 91), 57.1 nM.

Turning to “GAGCCACAAAATCACCGACGCTCACGGGTGCCCAGTTCGCGCGCCCACCTACCGTGTGAAGTCGTCACTCGGGCTTCTAAGTACGCTTAGCGCACGGTAGAGCGCAATCCAAGGCTAACCACCGTGCATCGATGTTGAAAGAGGCCCTCCGTCCTTATTACTTCAAGTCCCTGGGGTACCCGTTTCACTGCCA (double strand) [16-N603-30 nucleosome unmethylated]”, the Kd was 94.6 nM in [1], 716 nM with MeCP2 MBD (Homo sapiens), 188 nM in data set [2] and 94.9 nM in [3].

On to “GCTTCACCTCGTGACCCAAGCGACACCGGCACTGGGACAGGATGTATATATGTGACACGTGCCTGGAGACTAGGGAGTAATCCCCTTGGCGGTTAAAACGCGGGGGACAGCGCGTACGTGCGTTTAAGCGGTGCTAGAGCTGTCTACGACCAATTGAGCGGCCTCGGCACCGGGATTCTCCAGGGGATCCGGCATCATGGTCTAGAGCG (double strand) [37-N601-27 nucleosome 3x meCpG]”, for which the Kd with MeCP2 MBD (Homo sapiens) (setting [9]) was 67.9 nM; in [4] (setting [9]), 42.5 nM; in data set [3] (apparent, H1.0 prebound (chromatosome), competitor DNA, meCpG at +83, -61, -80 bp from dyad) it was 46 nM; in data set [3] (setting [9]), 37.5 nM; in data set [5] (setting [9]), 42.5 nM; in [6] (setting [9]), 46 nM. Moreover, the Kd was 37.5 nM in [7] (setting [9]) and 67.9 nM in data set [8] (setting [9]).

As to “GCTTCACCTCGTGACCCAAGCGACACCGGCACTGGGACAGGATGTATATATGTGACACGTGCCTGGAGACTAGGGAGTAATCCCCTTGGCGGTTAAAACGCGGGGGACAGCGCGTACGTGCGTTTAAGCGGTGCTAGAGCTGTCTACGACCAATTGAGCGGCCTCGGCACCGGGATTCTCCAGGGGATCCGGCATCATGGTCTAGAGCG (double strand) [37-N601-27 nucleosome -1 meCpG]”, the Kd in the data set with MeCP2 MBD (Homo sapiens) (meCpG at -1 (GACAGCGCGTAC)) amounted to 234 nM; in data set [4] (meCpG at -1 (GACAGCGCGTAC)), 119 nM; in data set [3] (apparent, H1.0 prebound (chromatosome), competitor DNA, meCpG at -1 (GACAGCGCGTAC)), 80.4 nM; in data set [3] (meCpG at -1 (GACAGCGCGTAC)) it was 72.1 nM; in [5] (meCpG at -1 (GACAGCGCGTAC)), 119 nM; in data set [6] (meCpG at -1 (GACAGCGCGTAC)), 80.4 nM. The Kd turned out to be 72.1 nM in data set [7] (meCpG at -1 (GACAGCGCGTAC)) and 234 nM in [8] (meCpG at -1 (GACAGCGCGTAC)).

As to “GCTTCACCTCGTGACCCAAGCGACACCGGCACTGGGACAGGATGTATATATGTGACACGTGCCTGGAGACTAGGGAGTAATCCCCTTGGCGGTTAAAACGCGGGGGACAGCGCGTACGTGCGTTTAAGCGGTGCTAGAGCTGTCTACGACCAATTGAGCGGCCTCGGCACCGGGATTCTCCAGGGGATCCGGCATCATGGTCTAGAGCG (double strand) [37-N601-27 nucleosome unmethylated]”, the Kd with MeCP2 MBD (Homo sapiens) amounted to 279 nM; in data set [3] it was 137 nM; in data set [3] (apparent, H1.0 prebound (chromatosome), competitor DNA), 164 nM; in [5], 167 nM; in data set [6], 164 nM; in data set [7] it was 137 nM. This sequence had a Kd in data set [8] of 279 nM.
